Test results taken from the supplement of paper PMC12042874.
± gives the uncertainty stated by the source.

assay: amyloid nucleation score (Sup35N fusion, yeast selection) (log enrichment); library NNK1; higher = more nucleation; inactive = no reads after selection
Procedure, shortened: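 Sup35N was fused to peptides of 20 random codons and expressed in psi-negative yeast, which were induced with 100 μM copper sulfate for 24 hours and then grown on medium lacking adenine and uracil for 7 days at 30°C. Plasmid inserts from input and output were sequenced on Illumina. The nucleation score is the DiMSum log enrichment of output over input reads, centred on the mode score of non-aggregating sequences. Sequences with under 100 input reads were left out, and random libraries had three technical output replicates.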

| Substance | amyloid nucleation score |
| --- | --- |
| HHWNLIEHYMLDECMEHLNS | -0.183 ± 0.31 |
| HILSHFVSCSRYL | -0.09 ± 1.4 |
| HILTMDLLPTPLSRQLRNMN | -0.763 ± 0.97 |
| HISLHYYKICNRFDLYNKDS | 7.107 ± 0.065 |
| HIYSRYQERRLVFVWYACND | 0.134 ± 0.38 |
| HKDVQGYVD | 1.01 ± 0.97 |
| HLCVTTGSSLL | -0.58 ± 0.98 |
| HLFTGNAYRGTRMGKLVGSH | 0.328 ± 0.41 |
| HLIDVTILGWDEVSIM | 1.26 ± 0.37 |
| HLIWL | -0.203 ± 1.1 |
| HLKHVWSYLPSSNVEEMQ | 0.766 ± 0.63 |
| HLWLFAGYMLLLKPKLKVCT | -0.625 ± 0.41 |
| HMLGKASGVLFNQRAVTGG | 0.696 ± 0.79 |
| HMTLCRRGFISGQADYFVQ | 0.275 ± 1.2 |
| HNCDYNCFNRGAHRVSEVGI | inactive |
| HNLDCKRVGSARTWIEWWVG | 0.07 ± 0.3 |
| HNMHFSPWIKCNSVYEFSGR | 1.56 ± 0.73 |
| HNQCHVKYDYHYL | -0.183 ± 0.78 |
| HPSSKLSRMCLD | 0.717 ± 0.93 |
| HQELMSFFLLCLH | inactive |
| HQLAFYRFCIASSCSWAYLS | 0.825 ± 0.41 |
| HQTEEISKSSFFQCNMVQCW | 2.94 ± 0.071 |
| HQVIQGVSYSTCG | 0.107 ± 0.38 |
| HQVVRSFGELHLLWCRLDEG | 0.204 ± 0.45 |
| HRAWAQVFFPELARSLVRSQ | 0.216 ± 0.6 |

| Substance | amyloid nucleation score |
| --- | --- |
| HRILVGGFRSCVMT | 0.311 ± 0.32 |
| HRRAFRQVVVTAGPKQASPM | 0.001 ± 0.56 |
| HRRFLAPME | 0.385 ± 0.3 |
| HRSRLFAISERFEDIFYI | 0.611 ± 0.78 |
| HRTDYENFPSSKSRRMLVRV | 0.436 ± 1.2 |
| HRWSDVFPWRTVKMYQLSRC | 0.552 ± 0.76 |
| HSAALWIVWR | -0.358 ± 0.62 |
| HSAITNCRRVVTALIYRRVM | -0.875 ± 2.4 |
| HSALIQSIEGVINVGCGVKK | 1.25 ± 0.23 |
| HSCYLYTSLLIFDMCRYWFL | 0.719 ± 0.48 |
| HSFMYKENAGMSGTLR | 0.187 ± 0.48 |
| HSHKGGWEWVSWLRREYWIA | 0.618 ± 0.47 |
| HSIWSRERVVVGVIYVCNFN | 7.227 ± 0.048 |
| HSLSWDNKLCLCSAN | 0.099 ± 0.3 |
| HSMVFNLEWFKARQDGDLN | 1.5 ± 0.34 |
| HSNCVLVVDMLAQWLMRAGD | 0.384 ± 0.79 |
| HSVIIALRGCIRIG | 2.25 ± 0.15 |
| HTLTPAHPTNGVVT | -0.871 ± 1.3 |
| HTVPILRSAVPDSDARAKSQ | 0.493 ± 0.4 |
| HVGSATASRVMSGCGSTVSY | -1.83 ± 1.7 |
| HVMRSSGRHGRRRLT | -0.631 ± 1.1 |
| HVNSFKLGNGSFHFWY | 0.634 ± 0.38 |
| HWLPHDVLSMWW | 1.29 ± 0.67 |
| HWVDLVGESNNSISFAVVFC | 4.9 ± 0.079 |
| HYIPRRN | -0.016 ± 1.7 |

| Substance | amyloid nucleation score |
| --- | --- |
| HYNFKDMNYKPLIVIEMHEW | 5.33 ± 0.055 |
| HYQMLDAISRSSVYVLSKSR | -0.239 ± 0.29 |
| HYRSTGMMESSRG | 0.522 ± 0.6 |
| HYSTEEGRVCGSVKQQKAWL | -0.296 ± 0.52 |
| HYYANSGVCSTSVNLFRLGS | 6.529 ± 0.049 |
| IAAYLVVDILPGSI | -0.036 ± 0.6 |
| IAGFEVARPSNSKTFFPSKF | 2.07 ± 0.14 |
| IALASCVCLSACWTLDVNSM | 0.989 ± 0.31 |
| IAPTFSYMMERSLFTVGYDM | -0.042 ± 0.41 |
| IASMSVFPSHMCFVGTSTVR | -0.417 ± 0.34 |
| IATGMWLYVSLVTPQHSLVN | 0.101 ± 0.49 |
| ICAPVEIL | -0.176 ± 0.76 |
| ICFNFYITYSASDALSRTCY | 8.287 ± 0.047 |
| ICGQLPISMGVLSIFWWFES | 0.331 ± 0.79 |
| ICQTFASCEFDGCLLH | 3.47 ± 0.12 |
| ICSNGLLIMNVE | 1.13 ± 0.97 |
| ICSWVHDQWAFYYISLYYVK | -1.2 ± 0.74 |
| ICTVSLLYFVYDKYCHNATL | -0.444 ± 0.56 |
| ICVLKKFLVSIQSVIY | 1.46 ± 0.74 |
| IDEVEGIRRFGLWELRLVCP | -0.225 ± 0.28 |
| IDHSTRVNPGEPLQVLRGGL | 4.29 ± 0.088 |
| IDIWVLLMNHGMKASPGDLE | -0.479 ± 0.42 |
| IDKMELFSRSKHKWYMASAI | -0.267 ± 0.79 |
| IDKSVGLVHKTHYWFQPWYK | 0.445 ± 0.43 |
| IDMCYWISVPAKNVHVIDIP | 1.29 ± 0.6 |

| Substance | amyloid nucleation score |
| --- | --- |
| IDRSLETTTVRGLVVRCYNG | 0.369 ± 0.35 |
| IDSVQFTLQTASHPRSDDDC | -0.143 ± 0.58 |
| IDSYITNKGSRSAKCHPDDS | -0.701 ± 1 |
| IECCFAYGRYLMWVGMYGSK | 0.79 ± 0.59 |
| IECLLDRILDTLYVRLNFIG | 0.616 ± 0.79 |
| IEGMCGDMVMTYYIFLDSCG | 1.07 ± 0.36 |
| IELDYYIINIVWPPAGNYRH | 6.734 ± 0.062 |
| IENGLYMSLYLGNQRI | 1.47 ± 0.29 |
| IERKLCKIGVMK | 0.597 ± 0.65 |
| IFAMV | inactive |
| IFCGRIKQCSLASHCKLEWG | 0.69 ± 0.41 |
| IFCYMNYGS | 0.554 ± 0.51 |
| IFIFYGTRGSFRLRVAY | 2.72 ± 0.24 |
| IFLGPVLFVGDTRFCHVLIN | 7.789 ± 0.049 |
| IFLYDRLNGDPFSSRW | 0.729 ± 0.9 |
| IFRTIERTVSIFNRSSR | 0.222 ± 0.72 |
| IFSNQSATLGLSVSSWIYLE | -0.983 ± 0.4 |
| IFTFQLLFRNSQRSMYSSVL | 0.651 ± 0.63 |
| IFTLGVALFSIVM | 4.24 ± 0.067 |
| IFVALRRD | -1.29 ± 1.3 |
| IFVVGAGLHDKTNGYVYRSR | 0.164 ± 0.24 |
| IFVVGKGDLGCCQI | 0.967 ± 0.35 |
| IFYLRFPVLLVISPRCALYI | 0.623 ± 0.75 |
| IFYYNRCWLTRYRVICLESI | -1.38 ± 0.51 |
| IGCSCGLHT | inactive |

| Substance | amyloid nucleation score |
| --- | --- |
| IGDDLLGVFLYIETNSTPVF | 0.655 ± 0.74 |
| IGDRNVNLGVQVVVMKE | 7.031 ± 0.048 |
| IGGRGVLKSVSTLTCVLWTW | 0.473 ± 0.92 |
| IGHVNTYCCIADWSWVRGAG | 8.895 ± 0.044 |
| IGMLGLCGRIPMQAEGGSFR | 0.712 ± 0.52 |
| IGSFGNRYRVPMRTASGYNM | 0.623 ± 1 |
| IGTLFTSNSYFWYLVVG | 2.51 ± 0.13 |
| IGTSFVYNYFDHFLK | 5.59 ± 0.062 |
| IHGNDPMLTVGSSMYV | 0.323 ± 0.41 |
| IHGSRCVPKSQD | 0.201 ± 0.38 |
| IHIWSSCLSNYKVILGAEVL | 0.407 ± 0.28 |
| IHKAKISWFLCYMLDDT | 0.097 ± 0.33 |
| IHSGQAEMGTLRYHSNKCKD | -0.554 ± 1.7 |
| IHVLADIYCVWGGLKEFWTS | 0.374 ± 0.65 |
| IIASGHDFL | -0.732 ± 0.87 |
| IIIYRNYALMEYDVGRV | 0.75 ± 0.76 |
| IINMGTYRSTMLNILLKEKC | 2.88 ± 0.27 |
| IKHLKNMGFCVRESLYSDRF | -0.042 ± 0.59 |
| IKLFLRNIV | -0.252 ± 0.59 |
| IKLQWS | -0.323 ± 0.53 |
| IKMYACMYWLVEFLVN | -0.046 ± 0.86 |
| IKRTCYPLVRGVPNQIRNLK | -0.091 ± 0.68 |
| ILCIESLSGFPWLICIENSL | 0.135 ± 0.39 |
| ILCSLYYICT | 2.74 ± 0.071 |
| ILCTIFHRTCFLRFRILEHF | inactive |

| Substance | amyloid nucleation score |
| --- | --- |
| ILDVKAPR | 0.446 ± 0.64 |
| ILFDSHANFVGMSCQYRSGR | 5.72 ± 0.1 |
| ILGKFFIDLSDI | -1.16 ± 0.43 |
| ILGVFNTIVVFKR | 4.9 ± 0.066 |
| ILICKSVRVQYTLSKLW | 1.8 ± 0.17 |
| ILKEIMIGGRDRTDDWKSHG | -1.3 ± 0.8 |
| ILLLVSISMVKESDQWLING | -0.519 ± 0.51 |
| ILLRSNIFMYFNMTEMPNSC | 6.798 ± 0.055 |
| ILNGSPKWNGWRTITCSAVS | 0.667 ± 0.44 |
| ILRCRGNALNAYWRGSFNR | 4.59 ± 0.078 |
| ILRRRMHDG | 0.247 ± 1.4 |
| ILSLIVFNYDYCSKVWNLLG | -1.53 ± 0.66 |
| ILTRRSLLRLWIIISDKSFR | -0.695 ± 1.4 |
| IMFYMTVDGCLSVEYIFR | -0.704 ± 0.42 |
| IMKLYPLRQSG | 0.453 ± 1.2 |
| IMKSFMDATYVSCFWILMPA | 1.57 ± 0.53 |
| IMPSCKLLAAHVADYVFLMR | 0.863 ± 0.84 |
| IMRNVQTDA | 0.383 ± 0.52 |
| IMYNCRYWSGVTLHYSVVQH | 1.89 ± 0.16 |
| INFDRNFF | -0.54 ± 0.31 |
| INGPCLLTYLPLAEVGCCLV | 0.25 ± 0.55 |
| INIGFMKGV | 0.416 ± 0.61 |
| INLCVPPRNVLFIDRCWTVV | 1.29 ± 0.3 |
| INLVTKYHLSITCSHSCQA | 7.204 ± 0.05 |
| INMLTWGWELILSGSSVYED | -0.151 ± 0.41 |

| Substance | amyloid nucleation score |
| --- | --- |
| INMRKYSNTGSGRLIFNFAF | 6.039 ± 0.052 |
| INRTTRNLLSRCRWYNCYKR | 0.155 ± 1 |
| INRVSLCTVEAVLSHEDACG | -0.494 ± 0.32 |
| INSAHYELN | -1.51 ± 2.4 |
| INVFREAYIIYCRCEGSGGD | 7.507 ± 0.059 |
| INVIPDLD | -0.572 ± 0.5 |
| INVWNLSWGNMIRAKNHLGV | -0.107 ± 0.53 |
| INYRLYGVIGVAGTGPG | 0.1 ± 0.33 |
| IPGGLNKERPYWYCTQMAGT | 1.25 ± 0.55 |
| IPKVRTRVLGIISTTSLLGG | 0.037 ± 0.97 |
| IPLVVVNPSARFRLRTKIIR | 0.908 ± 0.88 |
| IPNISGYPHICMESGGSLVC | 0.004 ± 0.61 |
| IQGGKNYRKQDHTRHVTTGT | -1.37 ± 2.4 |
| IRAFSWTIMLLFYCWWHVEN | 0.402 ± 0.86 |
| IRISVAVHVIVMNYMYPYLI | -0.44 ± 1.2 |
| IRLMRWGRCVGISVEGVC | 0.789 ± 0.46 |
| IRSSFMLRCIVSYVPCNTGL | -0.027 ± 1.1 |
| IRSVGRSLRFMYS | 0.204 ± 0.46 |
| IRSYHLVFVGM | 5.13 ± 0.1 |
| IRTVAR | 0.142 ± 0.38 |
